The target of the test is triazole-linked ^triazole42Ub^me-ADPr (5), biotinylated (UniProt P0CG48). Nature of the test: pull-down.

We go through 1 substance from article PMC7898697.

In turn, “mCherry-DupA-WT (from UniProt Q5ZTK7 1-301) (enzyme)” had a fold enrichment against biotinylated wild-type Ub or beads above 10 fold.
